Assay results reported in publication PMC3811445.

Biological target: E. coli EF-G (Δ529SNP531) (E. coli) (UniProt P0A6M8)
Assay: ITC; performed as described previously (ref 11); conditions not given here

## FusB (natural protein)
  Kd: 5.8 µM
